One molecule from paper PMC3573263 (Chemical biology & drug design, 2013) can be followed below.

As a reminder, the koff is a measure of how fast the partners let go of each other. Read a low koff as slow dissociation. A word on the kon: it is a measure of how fast the partners come together. Lower therefore signals slow association.

The test concerns the target YopH PTPase domain (active catalytic domain, residues 164-468), wild type (Yersinia pestis, UniProt O68720 164-468). The test can be described thus: SPR.

[ ]: non-standard residue; d: D form. The star is where a group is joined. Biotin = O=C1N[C@H]2[C@H](CS[C@H]2CCCCC(=O)*)N1; pY = N[C@@H](Cc1ccc(OP(=O)(O)O)cc1)C(=O)O

B1: biotinylated pTyr-EGFR peptide, biotin-LVDADEpYLIPQQG-COOH (peptide)
peptide: Biotin-LVDADE[pY]LIPQQG-OH
SMILES: CC[C@H](C)[C@H](NC(=O)[C@H](CC(C)C)NC(=O)[C@H](Cc1ccc(OP(=O)(O)O)cc1)NC(=O)[C@H](CCC(=O)O)NC(=O)[C@H](CC(=O)O)NC(=O)[C@H](C)NC(=O)[C@H](CC(=O)O)NC(=O)[C@@H](NC(=O)[C@H](CC(C)C)NC(=O)CCCC[C@@H]1SC[C@@H]2NC(=O)N[C@@H]21)C(C)C)C(=O)N1CCC[C@H]1C(=O)N[C@@H](CCC(N)=O)C(=O)N[C@@H](CCC(N)=O)C(=O)NCC(=O)O
As for B1, the koff stood at 0.0214 s⁻¹ and the kon was found to be 34.9 M⁻¹ s⁻¹.
